This note sets out measurements from the nanobody polyreactivity screen of Harvey et al. (2022).

The data set is described as follows: yeast display, Sf9 membrane polyspecificity reagent, FACS + sequencing; frameworks hold sequencing errors. A digest of the protocol: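 A nanobody's polyreactivity label depends on the gate it was sorted from. Yeast display cells were stained with 10% biotinylated, detergent-solubilized Sf9 membrane reagent for 1 hour at 4 °C, enriched on streptavidin microbeads and sorted by FACS. The low and high (top ~1%) gates were set on anti-HA fluorescence for expression and streptavidin fluorescence for reagent binding.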
For “QVQLVESGGGLFQAGGSLRLSCAASGSTFPYNAMGGYRQAPGKERELVAAINSGATTYYADSVKGRFTISRDNAKNTVYLQMNSLKPEDTAVYYCAAEGYASSSEYDYWGQGTQVTVSS”, the “polyreactivity (PSR sort gate)” value is “low polyreactivity”.

Take “QVQLVESGGGLFQAGGSLRLSCAASGSTSIYNAMGWYRQAPGKERELVAAIDVRGGGTYADSVKGRFTISRDNAKNTVYLQMNSMKPEDTAVYYCNADYARYPNGWFRIVGSGYWGQGTQVTVSS”: the “polyreactivity (PSR sort gate)” value was “low polyreactivity”.

On to “QVQLVESGGGLFQAGGSLRLSCAASRLIFPLYAMGWYRKAPWKERELVAANTRGGSTYYADSVKGRLTISSDNANNTVYLQINSLKAEDTAVYDCNDELPVHWSWYDYWGQGTQVTVSS”, for which the “polyreactivity (PSR sort gate)” value is reported as “low polyreactivity”.

Turning to “QVQLVESGGGLFQAGGSLRLSCAATGITFFRYPMGWYRQAPGKERELVAVITRGGTTYYADSVKGRFTISRDNAKNNAYLQINSLKPEDTAVSYCAAKPYYGYDYWGQGTQVTVSW”, the “polyreactivity (PSR sort gate)” value is listed as “high polyreactivity”.

Take “QVQLVESGGGLFQAGGSLRLSCAPSGFIFPKNPMSWYRHAPGKERELVAAISQSGGSTYYADSVKGRFTISRDNAKNTVYLQMKSLKADDTAVYSCAARYYLPNWVGGGEYNYWGQGTQVTVST”: the “polyreactivity (PSR sort gate)” value is on record as “high polyreactivity”.

For the sequence “QVQLVESGGGLFQAGGSLRLSCAPSGSIIIRNAMGWYRQAPGKEREWVAVISSSVGRTYYADSVKGRFTISRDTAKNTVYVQMNSLKPEVTAVYYCAARWYSGYGRFDYWGQVTQVTVSS”, the “polyreactivity (PSR sort gate)” value is “high polyreactivity”.

For “QVQLVESGGGLFQAGGSLRLSCASSGSIFLIYAMGWYRQAPGKERELVAAITQRGGSTYYADSVKGRFTISRDNAKISVYLQMESLKPEDTAVYYCNARRYVMRYNRFYYWGQGTQVTVSS”, the “polyreactivity (PSR sort gate)” value is “high polyreactivity”.

For “QVQLVESGGGLFQAGGSLRLSCSASGSIFKRYAMVWYRQAPGKERELVARITNRSGNTYYADSVKGRFTISRDNAKNTVYLQMISLKPEDSAVYYRAATKSLGRYYMYYWGQGTQVTVSS”, the “polyreactivity (PSR sort gate)” value is listed as “low polyreactivity”.

In the case of “QVQLVESGGGLFQAGVSLRISCAASGFIFDRNAMGWYRQAPGKERELVAVINSGGSTYYADSVKGRFTISRDNAKNTVYLQMNCLKPEDTAVYYCAAVRSRYGREYYYWGQGTQVTVSS”, the “polyreactivity (PSR sort gate)” value is recorded as “high polyreactivity”.

Regarding “QVQLVESGGGLFQEGGSLRISCAPSGSTFGGYVMGWYRQAPGKDRELVAAIRRVGRTYYADSVKGRFTISRDNAKNTVYLQINSLKAEVTAVYYFAADWAGWEGYRMDYWGQGTQVTVSS”, the “polyreactivity (PSR sort gate)” value is listed as “low polyreactivity”.

As for “QVQLVESGGGLFQEGGSLRLSCAASGFTFLYYDMGWYRQAPGKERELVAAINSSGGGTYYADSVKGRFTISRDNAKNTVYLQMNSLKPEDTAVYYCAVSWSDGYDYWGQGTQVTVSS”, the “polyreactivity (PSR sort gate)” value was “high polyreactivity”.

Take “QVQLVESGGGLFQSGGSLRLTSAASGSTFAYKAMGWYRQAPGKEREFVAAITIGSTYADSVKGRFTISRDNAKNTVYLQMNSLKPEDTAVYYCAVRRPRRNYNYPYDYWGQGTQVTVSS”: the “polyreactivity (PSR sort gate)” value is “low polyreactivity”.

In the case of “QVQLVESGGGLGQAAGSLRLSCAASGHIFGPYAMGWYSQAPGKERELVAAITSGGTTYYADSVKGRFTISRDNAKNTVYLQMNSLKPEDTAVYYCAAKFELTRYSSPFFWYDSWGQGTKVTVSS”, the “polyreactivity (PSR sort gate)” value is on record as “high polyreactivity”.

On to “QVQLVESGGGLGQAGGSLRLICAASGFIFRYNAMGWYRQAPGKERELVAGISRSGGRTYYADSVKGRFTISRDNAKNTVYLQMNSLKPEDTAVYYCNAEWVGGAGGYYYWGQGTQVTVSS”, for which the “polyreactivity (PSR sort gate)” value is on record as “low polyreactivity”.

Turning to “QVQLVESGGGLGQAGGSLRLSCAASGFTFRYYAMGWNRQAPGKERELVAAISASGGSTYYADSVKGRFTISRDNAKNTVYLQMNSLKPEDTAVYYCARYYAKMDYWGQGTQVTVSS”, the “polyreactivity (PSR sort gate)” value is listed as “high polyreactivity”.

With “QVQLVESGGGLGQAGGSLRLSCAASGFTFVFYAMGWYRQAPGKERELVAGISRTGGSTYYADSVKGRFTISRDNAKNTVYLQMNSLKPEDTAVYYCAAVSRGFGSRGYDYWGQGTQVTVSS”, the “polyreactivity (PSR sort gate)” value was “high polyreactivity”.

For the sequence “QVQLVESGGGLGQAGGSLRLSCAASGLIFGLYAMGWYRQAPGKERELVAAISYRTDSTYADSVKGRFTISRDNAKNTVYLQMNSLKPEDTAVYYCAADLRVSVRYYYWGQGTQVTVSS”, the “polyreactivity (PSR sort gate)” value is on record as “low polyreactivity”.

“QVQLVESGGGLGQAGGSLRLSCAASGRIFGVYGMGWYRQAPGNDRELVAAITLAGRTNYADSVKGRFTISRDNAKNTVYLQMNSLKPQDTAVYYCAAEKRKLFQGVARYRYEDWGQGTQVTVSS”: the “polyreactivity (PSR sort gate)” value is given as “low polyreactivity”.

Consider “QVQLVESGGGLGQAGGSLRLSCAASGRIFRYNAMGWYRQAPGKERELVAAITGSGGSTYYADSVKGRFTISRDNAKNTVYLQMNSLKPEDTAVYYCNTYTYYSRMDYWGQGTQVTVSS”, for which the “polyreactivity (PSR sort gate)” value is on record as “high polyreactivity”.

With “QVQLVESGGGLGQAGGSLRLSCAASGRIFYSNVMGWYRQAHGKEREFVAAISGRTGGTYYADSVKGRFTISRDNAKNTVYLQMNSLKPEDTAVYYCAARVIYYYGSGPYDYWGQGTQVTVSS”, the “polyreactivity (PSR sort gate)” value is listed as “low polyreactivity”.

Take “QVQLVESGGGLGQAGGSLRLSCAASGRTFFRYAMGWYRQAPGKERELVAAISSRGGSTYYADSVKGRFTISRDNAKNTVYLQMNSLKPEDTAVYYCNAAAFINFILYDYWGQGTQVTVSS”: the “polyreactivity (PSR sort gate)” value was “high polyreactivity”.

Turning to “QVQLVESGGGLGQAGGSLRLSCAASGRTVYYNGMGWYRPAPGKEREVVAAITSGGTTSYADSVKGRFTISRDNAKNTVYLQMISLKPEETAVYYSNADYWAVNYDYWGQGTQVTVSS”, the “polyreactivity (PSR sort gate)” value was “low polyreactivity”.

In the case of “QVQLVESGGGLGQAGGSLRLSCAASGSIFWGNAMGWYRQAPGKESELVACIRNSGTSTYYADSVKWRFTISRDNAKNTVYLKMNSLKPVDTAVYYCAAADGRQYSRYYWRGHDYWGQGTQVTVSS”, the “polyreactivity (PSR sort gate)” value was “low polyreactivity”.

For the sequence “QVQLVESGGGLGQAGGSLRLSCAASGSIFYYYAMGWYRQAPGKERELVASITSSGGTTSYADSVKGRFTISRDNAKNTVNLQMNSLKPEDTEVYYGNAQVYRYRIGYDYWGQGTQVTVSS”, the “polyreactivity (PSR sort gate)” value is “low polyreactivity”.

As for “QVQLVESGGGLGQAGGSLRLSCAASGSIIKPYAMGWYRQAPGKERELVAAIRSSGGRTNYADSVKGRFTISRDNAKNSVYFQMNSLKPEDTGVYYCAAGYVSYWYYRYDYWGQGTQVTVSS”, the “polyreactivity (PSR sort gate)” value was “high polyreactivity”.

With “QVQLVESGGGLGQAGGSLRLSCAASGVSNAMGWYRQAPGKERELVAAISRSGGSTYYADSVKGRFTISRDNAKNTVYLQMNRLKPEDTAVYYCNARPYWIDGSGLFPYDYWGQGSQVTVSS”, the “polyreactivity (PSR sort gate)” value was “high polyreactivity”.

Consider “QVQLVESGGGLGQAGGSLRLSCAPSGFIFTLYAMGWYRQAPGKERELVAAIDTSVASTYYADSVKGRFTLSRENAKYTVYLQMNSLKPEDTAVYYCNADGASYLILSYYQPYDYWGQGTQVTVSS”, for which the “polyreactivity (PSR sort gate)” value was “low polyreactivity”.

“QVQLVESGGGLGQAGGSLRLSCASSGFTFVPYAMVWYSPAPGKERELVAAIDFDDATTYYADSVKGRFTISRDNAKNTVYLQMNSMKPEDTALYYCAADGFYAPDDAPFYYWGQGTQVTVSS”: the “polyreactivity (PSR sort gate)” value is recorded as “high polyreactivity”.

On to “QVQLVESGGGLGQAGGSLRLSCTASGRIFPYYAMGWYRQAPGKERELVAALSGRGGRTYYADSVKGRFTISRDNAKNTVYLQMNSLNPEDTAVYYCNARVQAVHYGYWGQGTQVTVSS”, for which the “polyreactivity (PSR sort gate)” value is “high polyreactivity”.

As to “QVQLVESGGGLGQAGGSLRLTCAASGSIFRSYAMGWYRQAPGKESEFVATISSSTGSTYYADSVKGRFSISRDNAKNTVYLPMNSLKPEFTAVYYCAAVQPVKSSSGYHFWYYWGQGTQVTVSS”, the “polyreactivity (PSR sort gate)” value is reported as “high polyreactivity”.
